According to IntAct's records for PubMed 20802462:

B1: ERO1-like protein alpha (Homo sapiens), Q96HE7 (parent)
chain: MGRGWGFLFGLLGAVWLLSSGHGEEQPPETAAQRCFCQVSGYLDDCTCDVETIDRFNNYRLFPRLQKLLESDYFRYYKVNLKRPCPFWNDISQCGRRDCAVKPCQSDEVPDGIKSASYKYSEEANNLIEECEQAERLGAVDESLSEETQKAVLQWTKHDDSSDNFCEADDIQSPEAEYVDLLLNPERYTGYKGPDAWKIWNVIYEENCFKPQTIKRPLNPLASGQGTSEENTFYSWLEGLCVEKRAFYRLISGLHASINVHLSARYLLQETWLEKKWGHNITEFQQRFDGILTEGEGPRRLKNLYFLYLIELRALSKVLPFFERPDFQLFTGNKIQDEENKMLLLEILHEIKSFPLHFDENSFFAGDKKEAHKLKEDFRLHFRNISRIMDCVGCFKCRLWGKLQTQGLGTALKILFSEKLIANMPESGPSYEFHLTRQEIVSLFNAFGRISTSVKELENFRNLLQNIH

Variants of: B1
Conditions: with pdia1_human P4HB

Variant | effect of a mutation on the interaction
C94S | disrupting interaction
